# Data as given in the supplement of paper PMC7125110.
# ± gives the standard error. Fewer inactive variants are shown than the library holds.
# B1: glmS ribozyme (parent)
# chain: AUAAAAGCGCCAGAACUACAGAAAUGUAGUUGACGAGGAGGAGGUUUAUCGAAUUUUCGGCGGAUGCCUCCAAA
# Columns and labels:
# Settings in all cases: with glucosamine-6-phosphate
# glucosamine-6-phosphate [1] = variants of: B1; assay: self-cleavage kobs at 40 uM GlcN6P; higher = faster cleavage; RNA array
# How it was run: (§1)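 kcat and KM were obtained from weighted Michaelis–Menten fits across concentrations of kobs values. Those came from one- or two-exponential decay fits to per-tile medians normalised to baseline and to non-cleaving reference variants. The variants were barcoded ribozymes transcribed in situ by E. coli RNA polymerase on sequenced MiSeq chips and tracked through a hybridised Cy3 probe at 37 °C, with 40 μM to 10 mM glucosamine-6-phosphate in HEPES/KCl/Mg(OAc)2 buffer flowed in.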
# glucosamine-6-phosphate [2] = variants of: B1; assay: self-cleavage kobs at 160 uM GlcN6P; higher = faster cleavage; RNA array
# How it was run: as §1
# glucosamine-6-phosphate [3] = variants of: B1; assay: self-cleavage kobs at 10000 uM GlcN6P; higher = faster cleavage; RNA array
# How it was run: as §1
# glucosamine-6-phosphate [4] = variants of: B1; assay: self-cleavage kobs at 2500 uM GlcN6P; higher = faster cleavage; RNA array
# How it was run: as §1
# glucosamine-6-phosphate [5] = variants of: B1; assay: self-cleavage kobs at 640 uM GlcN6P; higher = faster cleavage; RNA array
# How it was run: as §1
Variant,self-cleavage kobs at 40 uM GlcN6P (glucosamine-6-phosphate [1]) [s⁻¹],self-cleavage kobs at 160 uM GlcN6P (glucosamine-6-phosphate [2]) [s⁻¹],self-cleavage kobs at 10000 uM GlcN6P (glucosamine-6-phosphate [3]) [s⁻¹],self-cleavage kobs at 2500 uM GlcN6P (glucosamine-6-phosphate [4]) [s⁻¹],self-cleavage kobs at 640 uM GlcN6P (glucosamine-6-phosphate [5]) [s⁻¹]
G29U G44A,< 1e-05,< 1e-05,3.45e-05 ± 9.6e-06,–,–
U46A G51A,< 1e-05,< 1e-05,< 1e-05,< 1e-05,–
A6G C50U C58U U65G,< 1e-05,–,< 1e-05,–,< 1e-05
C16G A36C,< 1e-05,–,< 1e-05,–,< 1e-05
C10U A12G G43U,< 1e-05,–,< 1e-05,< 1e-05,< 1e-05
A53C U57C,< 1e-05,–,4.63e-05 ± 1.2e-05,4.1e-05 ± 1.6e-05,–
C61U U65A,< 1e-05,–,< 1e-05,–,< 1e-05
G38A G41A G63C,< 1e-05,–,–,–,–
A12C G32A G44C,< 1e-05,–,–,< 1e-05,–
A52C U55A,< 1e-05,–,3.4e-05 ± 1.3e-05,–,–
A6U G35C U54A,< 1e-05,–,–,–,–
U30G U47C C70G,< 1e-05,–,7.72e-05 ± 2.2e-05,0.000116 ± 2.6e-05,5.55e-05 ± 2e-05
G26U C50G A52C U56G G66C C67U C71U,0.000243 ± 7.9e-05,–,0.000101 ± 2.7e-05,–,0.000548 ± 0.00021
C10A G38U,< 1e-05,< 1e-05,–,–,< 1e-05
C19A U31A,0.000156 ± 5.1e-05,–,0.00693 ± 0.0019,0.00209 ± 0.001,–
A53C C61G,< 1e-05,–,< 1e-05,–,< 1e-05
G38U U54G,< 1e-05,–,–,–,–
G35A U45A C67U,< 1e-05,–,< 1e-05,–,–
C8G G9C U55A,< 1e-05,–,< 1e-05,< 1e-05,< 1e-05
C61U C67A C70U,4.32e-05 ± 1.7e-05,–,–,–,–
A39U U54G C58U,< 1e-05,–,–,–,–
C10A G43A,< 1e-05,–,–,–,–

Variant,self-cleavage kobs at 40 uM GlcN6P (glucosamine-6-phosphate [1]) [s⁻¹],self-cleavage kobs at 160 uM GlcN6P (glucosamine-6-phosphate [2]) [s⁻¹],self-cleavage kobs at 10000 uM GlcN6P (glucosamine-6-phosphate [3]) [s⁻¹],self-cleavage kobs at 2500 uM GlcN6P (glucosamine-6-phosphate [4]) [s⁻¹],self-cleavage kobs at 640 uM GlcN6P (glucosamine-6-phosphate [5]) [s⁻¹]
A15C G32U G40U,< 1e-05,–,5.23e-05 ± 1.4e-05,–,–
A12U C34G G40C C50A,< 1e-05,< 1e-05,–,< 1e-05,< 1e-05
G7U A52G C68G,0.000127 ± 4.6e-05,–,0.000484 ± 0.00022,–,–
G44C G51A,< 1e-05,< 1e-05,< 1e-05,< 1e-05,< 1e-05
C11A U45G,< 1e-05,< 1e-05,–,–,< 1e-05
A33C G44C U57A A64U,< 1e-05,< 1e-05,< 1e-05,< 1e-05,< 1e-05
G41C C67G,< 1e-05,< 1e-05,< 1e-05,< 1e-05,< 1e-05
U30A A42G,0.000294 ± 7.3e-05,–,0.0172 ± 0.0059,–,0.0017 ± 0.00047
A15C G63U,< 1e-05,–,< 1e-05,–,< 1e-05
G59U C61U,< 1e-05,–,< 1e-05,–,< 1e-05
G32A C61G U69C,3.85e-05 ± 1.8e-05,–,3.49e-05 ± 1.7e-05,7.4e-05 ± 2.3e-05,–
G7U G9A A14U C50G,0.000146 ± 5.4e-05,0.000138 ± 3.6e-05,0.000226 ± 5.3e-05,0.000647 ± 0.00016,0.000267 ± 5.8e-05
G35A C50A G51A,< 1e-05,–,–,< 1e-05,< 1e-05
G35C C50A,< 1e-05,< 1e-05,< 1e-05,< 1e-05,< 1e-05
G40A G44A C70U,< 1e-05,–,< 1e-05,–,–
G7C U31G G43A U55G C68U,< 1e-05,–,–,–,–
C34A G51A,< 1e-05,< 1e-05,–,< 1e-05,–
U31C C70U,0.000152 ± 1.5e-05,0.000343 ± 4.1e-05,–,0.00284 ± 0.00074,0.000731 ± 6.7e-05
G9U G29C A33U A64U,< 1e-05,–,< 1e-05,< 1e-05,< 1e-05
C10U G43U U57G,< 1e-05,–,< 1e-05,–,–
G43C G63U,< 1e-05,< 1e-05,–,< 1e-05,< 1e-05
A39U A42G C67U,0.000231 ± 6.2e-05,0.000536 ± 0.00015,0.0241 ± 0.0085,0.00297 ± 0.00075,–
